From the supplement of paper PMC12338614
± gives the uncertainty stated by the source.

B1: library; numbered along this chain (parent)
chain: MEVVDPQQLGMFTEGELMSVGMDTFIHRIDSTEVIYQPRRKRAKLIGKYLMGDLLGEGSYGKVKEVLDSETLCRRAVKILKKKKLRRIPNGEANVKKEIQLLRRLRHKNVIQLVDVLYNEEKQKMYMVMEYCVCGMQEMLDSVPEKRFPVCQAHGYFCQLIDGLEYLHSQGIVHKDIKPGNLLLTTGGTLKISDLGVAEALHPFAADDTCRTSQGSPAFQPPEIANGLDTFSGFKVDIWSAGVTLYNITTGLYPFEGDNIYKLFENIGKGSYAIPGDCGPPLSDLLKGMLEYEPAKRFSIRQIRQHSWFRKKHPPAEAPVPIPPSPDTKDRWRSMTVVPYLEDLHGADEDEDLFDIEDDIIYTQDFTVPGQVPEEEASHNGQRRGLPKAVCMNGTEAAQLSTKSRAEGRAPNPARKACSASSKIRRLSACKQQ

Variants of: B1
Experiment: STK11 functional score (HeLa growth suppression), rescaled enrichment; synonymous median = 1, nonsense median = 0 (normalised score)
Details: with HeLa; variant type: missense
Protocol: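 Deep mutational scan (TileSeq/POPCode codon randomisation) of full-length codon-optimised STK11 cDNA integrated at a Bxb1 landing pad (AAVS1) in HeLa cells. Restoring functional STK11 suppresses HeLa proliferation. Variant frequencies were measured by NGS before and after about two weeks of growth. The error-corrected enrichment log-ratio was rescaled so that synonymous median = 1 and nonsense median = 0, scores above 1 were compressed, and codon-level and three biological replicate scores were combined; error is the bootstrapped standard error. Scale: synonymous median = 1, nonsense median = 0; below 0.5 = damaging.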
With K146V the STK11 functional score was 0.152 ± 0.098.
For K146R, the STK11 functional score was 1.58 ± 0.39.
Variant V3F has an STK11 functional score of 0.991 ± 0.32.
Variant K431M has an STK11 functional score of 1.25 ± 0.51.
In the case of Y49P, the STK11 functional score is reported as 0.101 ± 0.089.
Work on L353W yielded an STK11 functional score of 1.12 ± 0.64.
R28I showed an STK11 functional score of 1.41 ± 0.49.
P222D was tested, and the STK11 functional score was -0.103 ± 0.14.
S193G was tested, and the STK11 functional score was 0.596 ± 0.24.
Work on S193V yielded an STK11 functional score of 0.77 ± 0.24.
Variant S193C has an STK11 functional score of 0.963 ± 0.17.
S193E was tested, and the STK11 functional score was 1.54 ± 0.33.
With E376S the STK11 functional score was 1.57 ± 0.24.
In the case of L282P, the STK11 functional score is reported as 0.541 ± 0.13.
M392N showed an STK11 functional score of 0.559 ± 0.12.
For I88E, the STK11 functional score was 1.53 ± 0.18.
Work on D30P yielded an STK11 functional score of 1.67 ± 0.17.
In the case of S325Y, the STK11 functional score is reported as 0.029 ± 0.42.
F219H gave an STK11 functional score of 1.18 ± 0.66.
For D229R, the STK11 functional score was 0.991 ± 0.36.
L85S was tested, and the STK11 functional score was 1.29 ± 0.17.
P179G showed an STK11 functional score of 0.216 ± 0.078.
Variant P179R has an STK11 functional score of -0.0831 ± 0.084.
P179E showed an STK11 functional score of 0.0456 ± 0.13.
With E57P the STK11 functional score was 1.62 ± 0.32.
E57I gave an STK11 functional score of 1.15 ± 0.09.
For K62N, the STK11 functional score was 1.6 ± 0.6.
D208V showed an STK11 functional score of 1.06 ± 0.12.
D208P gave an STK11 functional score of 1.62 ± 0.24.
For P339M, the STK11 functional score was 1.62 ± 0.14.
H107G gave an STK11 functional score of 0.812 ± 0.13.
In the case of T32A, the STK11 functional score is reported as 1.66 ± 0.13.
Work on T32R yielded an STK11 functional score of 1.36 ± 0.36.
Y272E gave an STK11 functional score of 1.28 ± 0.18.
A398R showed an STK11 functional score of 1.42 ± 0.24.
G242H gave an STK11 functional score of 0.0155 ± 0.32.
G242R showed an STK11 functional score of -0.0649 ± 0.095.
W332C was tested, and the STK11 functional score was 0.361 ± 0.46.
In the case of A406D, the STK11 functional score is reported as 1.4 ± 0.36.
In the case of A406Q, the STK11 functional score is reported as 1.56 ± 0.33.
With K416F the STK11 functional score was 0.683 ± 0.49.
For K416Y, the STK11 functional score was 1.2 ± 0.58.
Variant K235V has an STK11 functional score of 0.794 ± 0.12.
With K235W the STK11 functional score was 1.51 ± 0.13.
In the case of S142F, the STK11 functional score is reported as 1.41 ± 0.43.
E396Y gave an STK11 functional score of 1.23 ± 0.21.
E357V was tested, and the STK11 functional score was 1.33 ± 0.25.
Variant E357A has an STK11 functional score of 1.12 ± 0.49.
Variant G227W has an STK11 functional score of 1.29 ± 0.15.
Work on P281V yielded an STK11 functional score of 1.19 ± 0.14.
Variant P281E has an STK11 functional score of 1.3 ± 0.46.
Work on P281R yielded an STK11 functional score of 0.969 ± 0.13.
A273K showed an STK11 functional score of 0.589 ± 0.23.
A273M showed an STK11 functional score of 0.796 ± 0.8.
E199V showed an STK11 functional score of 1.49 ± 0.23.
P144T was tested, and the STK11 functional score was 1.18 ± 0.2.
P144M was tested, and the STK11 functional score was 1.17 ± 0.64.
For P144H, the STK11 functional score was 0.422 ± 0.16.
Work on G135H yielded an STK11 functional score of 1.63 ± 0.21.
With V368H the STK11 functional score was 1.08 ± 0.6.
K96I showed an STK11 functional score of 1.08 ± 0.17.
F354N showed an STK11 functional score of 1.6 ± 0.19.
For D194L, the STK11 functional score was -0.0619 ± 0.096.
R211P was tested, and the STK11 functional score was 1.19 ± 0.33.
G346E was tested, and the STK11 functional score was 1.35 ± 0.74.
Variant G346L has an STK11 functional score of 1.38 ± 0.15.
For G346T, the STK11 functional score was 1.62 ± 0.21.
Variant G251V has an STK11 functional score of -0.0264 ± 0.098.
With G251W the STK11 functional score was -0.00281 ± 0.1.
Work on H306V yielded an STK11 functional score of 0.418 ± 0.39.
R74I gave an STK11 functional score of 1.15 ± 0.12.
D350P showed an STK11 functional score of 1.48 ± 0.16.
For T328W, the STK11 functional score was 1.59 ± 0.26.
Work on L195S yielded an STK11 functional score of 0.972 ± 0.13.
For Q305Y, the STK11 functional score was 1.53 ± 0.17.
With N380I the STK11 functional score was 1.04 ± 0.29.
Work on K388G yielded an STK11 functional score of 1.31 ± 0.29.
K388M showed an STK11 functional score of 1.39 ± 0.2.
Work on A218Y yielded an STK11 functional score of 1.34 ± 0.17.
With T186F the STK11 functional score was 1.33 ± 0.17.
T186Y gave an STK11 functional score of 1.14 ± 0.14.
Work on P321F yielded an STK11 functional score of 0.903 ± 0.49.
P321V showed an STK11 functional score of 1.41 ± 0.28.
With L290E the STK11 functional score was -0.387 ± 0.062.
G58L showed an STK11 functional score of -0.188 ± 0.095.
G58C was tested, and the STK11 functional score was 0.374 ± 0.095.
V114C was tested, and the STK11 functional score was 0.202 ± 0.086.
V114F showed an STK11 functional score of 1.03 ± 0.12.
Variant V63G has an STK11 functional score of 0.711 ± 0.21.
V63D gave an STK11 functional score of -0.044 ± 0.097.
L67P showed an STK11 functional score of 0.0421 ± 0.099.
For P413W, the STK11 functional score was 0.886 ± 0.37.
P413G gave an STK11 functional score of 1.56 ± 0.22.
With P413T the STK11 functional score was 1.44 ± 0.24.
With P149Y the STK11 functional score was -0.0036 ± 0.19.
Work on C418L yielded an STK11 functional score of 1.46 ± 0.13.
Work on Q371D yielded an STK11 functional score of 1.43 ± 0.11.
In the case of E98L, the STK11 functional score is reported as 0.433 ± 0.22.
Variant E98T has an STK11 functional score of 0.259 ± 0.093.
In the case of N247Q, the STK11 functional score is reported as 1.17 ± 0.23.
N247R was tested, and the STK11 functional score was 0.936 ± 0.16.
G276A was tested, and the STK11 functional score was 1.41 ± 0.14.
Work on G276T yielded an STK11 functional score of 1.16 ± 0.21.
L50G was tested, and the STK11 functional score was 0.949 ± 0.24.
E293D showed an STK11 functional score of 1.43 ± 0.47.
Variant E293V has an STK11 functional score of 1.02 ± 0.18.
For E293M, the STK11 functional score was 0.995 ± 0.14.
H345W gave an STK11 functional score of 1.56 ± 0.11.
In the case of T395S, the STK11 functional score is reported as 0.942 ± 0.26.
In the case of C391S, the STK11 functional score is reported as 0.743 ± 0.67.
Work on L252S yielded an STK11 functional score of 1.5 ± 0.22.
Variant S59N has an STK11 functional score of 1.45 ± 0.2.
S59D gave an STK11 functional score of 0.937 ± 0.59.
Variant N259C has an STK11 functional score of 1.12 ± 0.42.
With E317Y the STK11 functional score was 1.04 ± 0.4.
D141W showed an STK11 functional score of 0.69 ± 0.12.
Work on Y340S yielded an STK11 functional score of 1.3 ± 0.28.
Variant C278L has an STK11 functional score of 1.08 ± 0.46.
For F231D, the STK11 functional score was 1.56 ± 0.39.
In the case of F231V, the STK11 functional score is reported as 0.867 ± 0.094.
N226E was tested, and the STK11 functional score was 0.0384 ± 0.15.
N226P gave an STK11 functional score of 0.609 ± 0.13.
Work on R40E yielded an STK11 functional score of 1.41 ± 0.47.
For V243P, the STK11 functional score was -0.157 ± 0.11.
V143A showed an STK11 functional score of 1.34 ± 0.084.
V143I was tested, and the STK11 functional score was 1.09 ± 0.16.
With V143P the STK11 functional score was -0.133 ± 0.082.
Work on V143Q yielded an STK11 functional score of 0.751 ± 0.082.
I99Y was tested, and the STK11 functional score was 0.0269 ± 0.081.
Work on N393C yielded an STK11 functional score of 1.54 ± 0.18.
With V173I the STK11 functional score was 1.52 ± 0.25.
With V197A the STK11 functional score was 1.26 ± 0.69.
With K41I the STK11 functional score was 0.844 ± 0.095.
Variant E407G has an STK11 functional score of 0.689 ± 0.64.
G394I showed an STK11 functional score of 1.51 ± 0.21.
G394P showed an STK11 functional score of 1.52 ± 0.25.
For G394S, the STK11 functional score was 1.46 ± 0.33.
With E349V the STK11 functional score was 1.16 ± 0.37.
E349R showed an STK11 functional score of 1.37 ± 0.15.
G15S was tested, and the STK11 functional score was 1.28 ± 0.12.
G15F showed an STK11 functional score of 1.05 ± 0.1.
Work on G15L yielded an STK11 functional score of 1.48 ± 0.2.
For G215I, the STK11 functional score was 0.938 ± 0.11.
L113P gave an STK11 functional score of 0.54 ± 0.081.
G268A showed an STK11 functional score of 0.916 ± 0.13.
E375Y was tested, and the STK11 functional score was 1.52 ± 0.24.
Work on Q112T yielded an STK11 functional score of 1.27 ± 0.39.
In the case of I46M, the STK11 functional score is reported as 0.908 ± 0.76.
T71L was tested, and the STK11 functional score was 0.974 ± 0.12.
R425A was tested, and the STK11 functional score was 1.59 ± 0.21.
For Y292V, the STK11 functional score was 0.931 ± 0.12.
For H379V, the STK11 functional score was 1.46 ± 0.26.
Work on E351L yielded an STK11 functional score of 1.43 ± 0.25.
H154P gave an STK11 functional score of -0.204 ± 0.089.
With H174T the STK11 functional score was 1.63 ± 0.19.
In the case of H174A, the STK11 functional score is reported as 0.322 ± 0.12.
In the case of T230K, the STK11 functional score is reported as 1.29 ± 0.1.
Variant Q7V has an STK11 functional score of 1.37 ± 0.27.
Q7G showed an STK11 functional score of 0.637 ± 0.11.
Work on T189F yielded an STK11 functional score of 1.25 ± 0.47.
For E65S, the STK11 functional score was 1.55 ± 0.19.
In the case of G163H, the STK11 functional score is reported as -0.383 ± 0.17.
For G163C, the STK11 functional score was 0.245 ± 0.11.
P387L gave an STK11 functional score of 1.02 ± 0.3.
P387F gave an STK11 functional score of 1.14 ± 0.64.
D53P showed an STK11 functional score of 1.52 ± 0.36.
M125I was tested, and the STK11 functional score was 1.11 ± 0.19.
